Reference: patent US20220017616A1 (published 2022)
Residue numbers refer to the chain shown, from its start.

T1: human CD112R (N81D)
T1 chain: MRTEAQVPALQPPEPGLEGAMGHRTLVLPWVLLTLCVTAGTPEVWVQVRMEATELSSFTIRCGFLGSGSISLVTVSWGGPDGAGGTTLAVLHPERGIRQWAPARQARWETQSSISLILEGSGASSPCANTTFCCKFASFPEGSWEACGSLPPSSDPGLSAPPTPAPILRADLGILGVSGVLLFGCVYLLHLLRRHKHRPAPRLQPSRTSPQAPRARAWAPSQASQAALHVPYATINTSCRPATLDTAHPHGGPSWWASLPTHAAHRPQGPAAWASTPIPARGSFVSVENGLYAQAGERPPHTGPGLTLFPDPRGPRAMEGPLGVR

T2: human TIGIT (UniProt Q495A1 22-244)
T2 chain: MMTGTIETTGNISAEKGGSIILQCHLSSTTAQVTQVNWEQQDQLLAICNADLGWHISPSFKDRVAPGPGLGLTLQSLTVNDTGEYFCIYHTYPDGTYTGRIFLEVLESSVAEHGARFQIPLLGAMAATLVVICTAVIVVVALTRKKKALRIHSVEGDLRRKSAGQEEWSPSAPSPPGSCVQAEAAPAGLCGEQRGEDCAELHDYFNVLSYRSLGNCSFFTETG

B1: 29E10 (antibody, V domains shown)
VH: EVQLVESGGGLVQPGGSLRLSCAASGFTFRNYDMHWVRQVPGKGLEWVSDIGNSGETYYLGSVKGRFTISRENAKNSLYLQMNSLRAGDTAVYYCVREEFGYGMDVWGQGTTVTVSS
VL: DIQMTQSPSSLSASVGDRVTITCRASQGIRNDLGWYQQKPGKAPKRLIYAASSLQSGVPSRFSGSGSGTEFTLTISSLQPEDFATYYCLQHNSYPLTFGGGTKVEIKR
B2: 1E1.016 (antibody, V domains shown)
VH: QVQLVQSGAEVKKPGASVKVSCKASGYTFTDYYIYWVRQAPGQGLEWMGWINPNAGGTNYAQKFQGRVTMTRDTSISTAYIELSRLRSDDTAVYYCAREDNFNGMDVWGQGTTVTVSS
VL: B1 VL with H91L, S93A
B3: 24F1 (antibody, V domains shown)
VH: EVQLVESGGGLVQPGGSLRLSCAASGFTFSRDDMHWVRQATGKGLEWVAGIDNAGDTYYPGSVKGRFTISRENAKNSLYLQMNSLRAGDTAIYYCAREGQWPYGMDVWGQGTTVTVSS
VL: B1 VL with A50S, P59S, H91S
B4: 24F1.001 (antibody, V domains shown)
VH: B3 VH with D56E
VL: B1 VL with A50S, P59S, H91S
B5: 58A7.003.008 (antibody, V domains shown)
VH: QVQLQESGPGLVKPSETLSLTCTVSGGSISSGGYYWNWIRQPPGKGLEWIGYIYYSGSTFYNPSLKSRVTISVDTSKNQFSLKLSSVTAADTAVYYCARAPRYNWNYGWFDPWGQGTLVTVSS
VL: EIVLTQSPGTLSLSPGERATLSCRASQQVSSTYLAWYQQKPGQAPRLLFYGASSRATGIPDRFSRSGSGTDFTLTISRLEPEDFAVYYCQQYDVSPWTFGQGTKVEIKR
B6: 55G7.041 (antibody, V domains shown)
VH: EVQLVESGGGVVQPGGSLRLSCAASGFTFSSYGMHWVRQAPGKGLEWVALIWFDESNIYYADAVKGRFTISRDNAKNTLYLQMNSLRAEDTAVYFCARGYDLLTGYYNFDFWGQGTLVTVSS
VL: QAGLTQPPSVSKGLRQTATLTCTGNANNVGNRGAAWLQQHQGHPPKLLSYRNNNRPSGISERLSASRSGNTASLTITGLQPEDEADYYCSAWDSSLSAWVFGGGTKLTVLG
B7: human CD112R (receptor)
chain: TPEVWVQVRMEATELSSFTIRCGFLGSGSISLVTVSWGGPNGAGGTTLAVLHPERGIRQWAPARQARWETQSSISLILEGSGASSPCANTTFCCKFASFPEGSWEACGSLPPSSDPGLSAPPTPAPILRADLAGILGVSGVLLFGCVYLLHLLRRHKHRPAPRLQPSRTSPQAPRARAWAPSQASQAALHVPYATINTSCRPATLDTAHPHGGPSWWASLPTHAAHRPQGPAAWASTPIPARGSFVSVENGLYAQAGERPPHTGPGLTLFPDPRGPRAMEGPLGVR
B8: 43B7.002.015 (antibody, V domains shown)
VH: QVQLQESGPGLVKPSETLSLTCTVSGGSISSGGYYWSWIRQHPGKGLEWIGYIYYRGGTYYNPSLRSRVTMSVDTSKNQFSLRLSSVTAADTAVYYCARTIFGVIILDNWGQGTPVTVSS
VL: DIQMTQSPSSLSASVGDRVTITCRSSQSISSYLNWYQQKPGRAPKLLIYAASSLQSGVPSRFSGSGSGTDFTLTISSLQPEDFASYYCQQSYTTPPTFGGGTKVEIKR
B9: 66H9.009 (antibody, V domains shown)
VH: QVQLQESGPGLVKPSETLSLTCTVSGGSISSVYFYWNWIRQPPGKGLEWIGYIYYSGGTYYNPSLRSRVTISVDTSKNQFSLKLNSVTAADTAVYYCARGSIAAGGGYFYYNDMDVWGQGTTVTVSS
VL: EIVLTQSPDFQSVTPKEKVAITCRASQSIGSSLHWYQQKPDQSPKPLIKYVSQSFSGVPSRFSGSGSGTDFTLTINSLEAEDAATYYCHQSSSLPLTFGGGTKVEIKR

Experiments:
Assay in all cases: Biacore SPR
human CD112R (N81D) = molecular target: T1, human CD112R (N81D)
cynomolgus TIGIT = molecular target: cynomolgus TIGIT
Chain of cynomolgus TIGIT (chain, as listed by the source): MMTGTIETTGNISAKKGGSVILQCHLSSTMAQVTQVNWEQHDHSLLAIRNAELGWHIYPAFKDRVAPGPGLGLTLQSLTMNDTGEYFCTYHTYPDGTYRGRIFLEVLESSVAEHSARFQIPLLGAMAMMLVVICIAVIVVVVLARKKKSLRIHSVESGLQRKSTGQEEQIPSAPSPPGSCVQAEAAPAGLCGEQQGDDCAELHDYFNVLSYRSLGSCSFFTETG

human TIGIT = molecular target: T2, human TIGIT
31B3.001 = molecular target: 31B3.001

Binder | Kd (human CD112R (N81D)) [nM] | Kd (cynomolgus TIGIT) [nM] | Kd (human TIGIT) [nM] | Kd (31B3.001) [nM]
B1 | 0.126 |  |  | 
B2 | 0.25 |  |  | 
B3 | 0.0506 |  |  | 
B4 | 0.0594 |  |  | 
B5 |  | 9.39 | 0.283 | 
B6 |  | 25 | 0.228 | 
B7 |  |  |  | 2.29
B8 |  | 13 | 0.0519 | 
B9 |  | 34.7 | 0.0523 | 
